According to patent US20260209362A1 (VIB VZW, published 2026):
Numbering of substitutions follows the chain as printed.

B1: anti-IL-12Rβ2 VHH clone 3CAHS142 (clone ID 20401) (VHH, not shown: small tags and cut ends)
VHH: QVQLQESGGGLVQAGESLTLSCIASGVIKDYAMGWFRQAPGKEREFVAAISWSGVSIYYADSVKGRFTISRDNAKNTVYLQMNSLEPEDTAVYYCAGTEGAYTVAGGSTFGYDMDYWGKGTQVTVSS
notes: periplasmic extract
B2: anti-IL-12Rβ2 VHH clone 3CRHS99 (clone ID 20427) (VHH, not shown: small tags and cut ends)
VHH: QVQLQESGGGLVQPGGSLRLSCKASGFTFSTYAMSWVRQAPGKGLEWVSAINSGGLSTDYADSVEGRFTISRDDAKNMLFLQMNSLKAEDTARYYCAKYEDCSDYMCHRDRAGYWGQGTQVTVSS
notes: periplasmic extract
B3: anti-IL-12Rβ2 VHH clone 3CRHS106 (clone ID 20429) (VHH, not shown: small tags and cut ends)
VHH: B2 VHH with I51V, A88P
notes: periplasmic extract
B4: anti-IL-12Rβ2 VHH clone 3CAHS79 (clone ID 20398) (VHH, not shown: small tags and cut ends)
VHH: QVQLQESGGGLVQPGGSLRLTCVASGFPFSTHAMSWVRQPPGKGREWISAINSGGDSTDYADSVMGRFTISRDNAKNTVYLQMNSLKSEDTAVYYCAKYEDCSDYDCSSRASWGQGTQVTVSS
notes: periplasmic extract
B5: anti-IL-12Rβ2 VHH clone 3CAHS171 (clone ID 20407) (VHH, not shown: small tags and cut ends)
VHH: B4 VHH with V93A
notes: periplasmic extract
B6: anti-IL-12Rβ2 VHH clone 3CAH32 (clone ID 20357) (VHH, not shown: small tags and cut ends)
VHH: QVQLQESGGGLVQPGGSLRLSCAASGSILRINLMGWYRQVPGKQRELVAEMSTGGSTTYVDSVKGRFTISRDNAKNTVYLQMNSLKPEDTAVYYCNAKAWQLGRLENDDWGQGTQVTVSS
notes: periplasmic extract
B7: anti-IL-12Rβ2 VHH clone 3CAHS102 (clone ID 20399) (VHH, not shown: small tags and cut ends)
VHH: B6 VHH with K64E
notes: periplasmic extract
B8: anti-IL-12Rβ2 VHH clone 3CAHS170 (clone ID 20406) (VHH, not shown: small tags and cut ends)
VHH: QVQLQESGGGLVQAGGSLRLSCVASGRTFSSYAMGWFRQGPGKEREFVAAISWSGVSIYYADSVKGRFTISRDNAKNTVYLQMNSLEPEDTAVYYCAGTEGAYTVAGGSTFGYDMDYWGKGTQVTVSS
notes: periplasmic extract
B9: anti-IL-12Rβ2 VHH clone 3CAH48 (clone ID 20360) (VHH, not shown: small tags and cut ends)
VHH: B8 VHH with V23A, I58T, E87R, G98A
notes: periplasmic extract
B10: anti-IL-12Rβ2 VHH clone 2CAH27 (clone ID 20354) (VHH, not shown: small tags and cut ends)
VHH: B8 VHH with L11S, A14S
notes: periplasmic extract
B11: anti-IL-12Rβ2 VHH clone 3CRHS142 (clone ID 20434) (VHH, not shown: small tags and cut ends)
VHH: QVQLQESGGGLVQAGGSLRLSCVSSQTLVGIEAMGWYRQAPGKQRELVALITLNGGTFYADSVKGRFTISRDVAEHMLYLEMNSLNPEDTAVYFCVAGVESDNEEPTYWGQGTQVTVSS
notes: periplasmic extract
B12: anti-IL-12Rβ2 VHH clone 3CRHS67 (clone ID 20424) (VHH, not shown: small tags and cut ends)
VHH: B11 VHH with R19T
notes: periplasmic extract
B13: anti-IL-12Rβ2 VHH clone 3CRHS166 (clone ID 20439) (VHH, not shown: small tags and cut ends)
VHH: B11 VHH with A14S
notes: periplasmic extract
B14: anti-IL-12Rβ2 VHH clone 2CRHS4 (clone ID 20411) (VHH, not shown: small tags and cut ends)
VHH: B11 VHH with A14P, E75G
notes: periplasmic extract
B15: anti-IL-12Rβ2 VHH clone 3CRHS156 (clone ID 20437) (VHH, not shown: small tags and cut ends)
VHH: B11 VHH with A14S, T68A
notes: periplasmic extract
B16: anti-IL-12Rβ2 VHH clone 3CRH59 (clone ID 20385) (VHH, not shown: small tags and cut ends)
VHH: QVQLQESGGGLVQPGGSLRLSCTASGFAFSSYWMYWVRQTPGKGFEWVSVVNPGGEITYYGDSMEDRFTISRDNAKNTLYLQMNSLKPEDTGLYYCARDRTTIDYTRTYYRGGQGTQVTVSS
notes: periplasmic extract
B17: anti-IL-12Rβ2 VHH clone 2CRH41 (clone ID 20365) (VHH, not shown: small tags and cut ends)
VHH: QVQLQESGGGLVQPGGSLRLSCTASGFAFSSYWMYWVRQSPEKGFEWVSVVDTDGGITYYADSVKGRFTISRDNAKNTLYLQMNSLKPQDTALYYCARDRTTLEYTRTYYRTGQGTQVTVSS
notes: periplasmic extract
B18: anti-IL-12Rβ2 VHH clone 3CRHS163 (clone ID 20438) (VHH, not shown: small tags and cut ends)
VHH: B17 VHH with S31T, V37I, D52N, D54G, G56D, Q89E, L103M, E104S, T112G
notes: periplasmic extract
B19: anti-IL-12Rβ2 VHH clone 3CAHS124 (clone ID 20400) (VHH, not shown: small tags and cut ends)
VHH: QVQLQESGGGLVQPGGSLRLSCAASGRTINAYIMGWFRQAPGKEREFVAAVSGSGGSTYYADSVKGRFTISRDNAKNTVNLQMDNLRSEDTDVYYCAATYESVYLQNPGQYDYWGQGTQVTVSS
notes: periplasmic extract
B20: anti-IL-12Rβ2 VHH clone 3CAHS150 (clone ID 20403) (VHH, not shown: small tags and cut ends)
VHH: B19 VHH with L11S, P14A, I33V, V51I
notes: periplasmic extract
B21: anti-IL-12Rβ2 VHH clone 3CRH25 (clone ID 20378) (VHH, not shown: small tags and cut ends)
VHH: QVQLQESGGGLVQAGDSLRLSCTASGHTFSRYTTIGWFRQAPGKDREFVAAIRWSGDITDYADAVKGRFTISRDNVKNTVYLQMNSLNPEDTAVYYCARGYSEYGVLSRNRGLYAYWGQGTQVTVSS
notes: periplasmic extract
B22: anti-IL-12Rβ2 VHH clone 3CRHS77 (clone ID 20425) (VHH, not shown: small tags and cut ends)
VHH: B21 VHH with D16G, R31S, D45E, R53G, D74H, K77E
notes: periplasmic extract
B23: anti-IL-12Rβ2 VHH clone 3CRH64 (clone ID 20386) (VHH, not shown: small tags and cut ends)
VHH: B21 VHH with D16G, M84T
notes: periplasmic extract

biological target: T1, biotinylated recombinant human IL-12Rβ2 (human, UniProt Q99665 24-622, random biotinylated); assay: BLI, P.E., off-rate ranking
T1 construct: Recombinant protein produced in-house; also called hIL-12RB2; human IL-12RB2
T1 sequence: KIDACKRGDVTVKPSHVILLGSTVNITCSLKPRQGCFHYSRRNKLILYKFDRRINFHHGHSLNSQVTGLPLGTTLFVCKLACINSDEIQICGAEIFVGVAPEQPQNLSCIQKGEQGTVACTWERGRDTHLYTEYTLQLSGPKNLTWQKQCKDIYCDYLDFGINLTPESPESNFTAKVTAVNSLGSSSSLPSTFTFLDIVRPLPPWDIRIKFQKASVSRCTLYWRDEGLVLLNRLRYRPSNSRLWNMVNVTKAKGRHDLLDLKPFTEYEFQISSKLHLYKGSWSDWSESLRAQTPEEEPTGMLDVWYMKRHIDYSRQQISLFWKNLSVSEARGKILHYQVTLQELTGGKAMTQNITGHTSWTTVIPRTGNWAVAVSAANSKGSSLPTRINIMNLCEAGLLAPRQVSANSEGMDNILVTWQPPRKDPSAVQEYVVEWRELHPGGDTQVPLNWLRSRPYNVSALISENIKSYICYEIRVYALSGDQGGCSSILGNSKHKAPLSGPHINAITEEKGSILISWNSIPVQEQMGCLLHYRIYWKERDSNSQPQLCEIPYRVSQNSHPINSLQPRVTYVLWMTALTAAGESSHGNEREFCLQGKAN

Row | Response | koff [s⁻¹] | Binder
1 | 0.352 | 0.00324 | B1
2 | 0.259 | 0.00405 | B2
3 | 0.297 | 0.00355 | B3
4 | 0.268 | 0.00434 | B4
5 | 0.195 | 0.00431 | B5
6 | 0.607 | 0.00419 | B6
7 | 0.323 | 0.00267 | B7
8 | 0.515 | 0.00379 | B8
9 | 0.759 | 0.00443 | B9
10 | 0.482 | 0.00494 | B10
11 | 0.205 | 0.00275 | B11
12 | 0.416 | 0.00443 | B12
13 | 0.149 | 0.00247 | B13
14 | 0.279 | 0.00311 | B14
15 | 0.282 | 0.00297 | B15
16 | 0.487 | 0.00453 | B16
17 | 0.493 | 0.00496 | B17
18 | 0.339 | 0.00302 | B18
19 | 0.293 | 0.00324 | B19
20 | 0.31 | 0.00369 | B20
21 | 0.523 | 0.00205 | B21
22 | 0.551 | 0.00426 | B22
23 | 0.726 | 0.00428 | B23

biological target: T1, biotinylated recombinant human IL-12Rβ2; assay: ELISA, P.E., biotinylated antigen

Row | ELISA hIL-12RB2/control | Binder
24 | 4.98 | B1
25 | 3.13 | B2
26 | 10.2 | B3
27 | 3.71 | B4
28 | 3.27 | B5
29 | 4.31 | B6
30 | 3.54 | B7
31 | 5.87 | B8
32 | 9.56 | B9
33 | 3.84 | B10
34 | 23.7 | B11
35 | 18.3 | B12
36 | 23.2 | B13
37 | 12.5 | B14
38 | 24.5 | B15
39 | 15.9 | B16
40 | 3.8 | B17
41 | 3.58 | B18
42 | 5.67 | B19
43 | 4.54 | B20
44 | 5.16 | B21
45 | 6.37 | B22
46 | 4.94 | B23

biological target: T2, biotinylated recombinant mouse IL-12Rβ2 (mouse, UniProt P97378 24-637, random biotinylated); assay: ELISA, P.E., biotinylated antigen
T2 construct: Recombinant protein produced in-house; also called mIL-12RB2; mouse IL-12RB2
T2 sequence: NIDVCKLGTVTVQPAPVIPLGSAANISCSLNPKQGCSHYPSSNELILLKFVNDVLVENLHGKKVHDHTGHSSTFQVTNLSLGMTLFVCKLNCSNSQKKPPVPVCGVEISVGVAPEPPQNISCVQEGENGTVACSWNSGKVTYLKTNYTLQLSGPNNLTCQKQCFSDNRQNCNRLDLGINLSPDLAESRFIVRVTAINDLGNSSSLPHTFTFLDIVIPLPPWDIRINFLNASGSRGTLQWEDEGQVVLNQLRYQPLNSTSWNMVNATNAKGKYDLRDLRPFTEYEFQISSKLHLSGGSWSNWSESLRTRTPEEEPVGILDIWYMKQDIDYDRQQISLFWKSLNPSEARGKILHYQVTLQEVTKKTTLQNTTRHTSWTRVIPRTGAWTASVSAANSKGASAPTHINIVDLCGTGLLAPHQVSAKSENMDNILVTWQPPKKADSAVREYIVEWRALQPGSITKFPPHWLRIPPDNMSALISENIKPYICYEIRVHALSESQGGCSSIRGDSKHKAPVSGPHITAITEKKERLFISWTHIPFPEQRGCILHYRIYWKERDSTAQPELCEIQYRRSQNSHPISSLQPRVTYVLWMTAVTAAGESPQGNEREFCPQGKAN

Row | ELISA mIL-12RB2/control | Binder
47 | 1.07 | B1
48 | 0.908 | B2
49 | 1.03 | B3
50 | 1.04 | B4
51 | 0.961 | B5
52 | 0.842 | B6
53 | 1.02 | B7
54 | 0.945 | B8
55 | 1.11 | B9
56 | 1.05 | B10
57 | 0.999 | B11
58 | 1.19 | B12
59 | 1.06 | B13
60 | 1.07 | B14
61 | 1.03 | B15
62 | 1.89 | B16
63 | 1.64 | B17
64 | 0.927 | B18
65 | 1 | B19
66 | 0.988 | B20
67 | 1.04 | B21
68 | 1.02 | B22
69 | 1.41 | B23
